Test results from the nanobody polyreactivity screen of Harvey et al. (2022).

Assay: yeast display, Sf9 membrane polyspecificity reagent, FACS + sequencing; frameworks hold sequencing errors
Outline: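 Nanobodies came from a synthetic yeast display library in Saccharomyces cerevisiae BJ5465, induced with galactose for 36–48 hours and stained for 1 hour at 4 °C with 10% biotinylated, detergent-solubilized Sf9 membrane reagent. Cells were enriched on streptavidin microbeads and then FACS-sorted, with low and high (top ~1%) gates set on anti-HA fluorescence for expression and streptavidin fluorescence for reagent binding. Each polyreactivity label reflects the gate a clone came from. Genes were amplified by colony PCR, sequenced by MiSeq 2 × 250 and filtered by CDR length.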

Sequence	polyreactivity (PSR sort gate)
QVQLVESGGGLVQAGGSLRLSCAASGNIFRYYAMGWYRQSPGKERELVAAITRSGGSTYADSVKGRFTISRDNAKNTVYLQMNSLKPEDTAVYYCAAVGYRYFTIYDYWGQGTQVTVSS	low polyreactivity
QVQLVESGGGLVQAGGSLRLSCAASGITIRRYAMGWYRQAPGKERELVAAITTGGGGTYYADSVKGRFTISRDNAKNTVYLQMNSLKPEDTAVYYCAATYWRTYPSYYWGQGTQVTVSS	high polyreactivity
QVQLVESGGGLVQAGGSLRLSCAASGFTFGHYAMGWYRQAPGKERELVAAISRSGGTTSYADSVKGRFTISRDNAKNTVYLQMNSLKPEDTAVYYCNKDYIWARYGGGRDYWGQGTQVTVSS	low polyreactivity
QVQLVESVGGLVQAGGSLRLSCAASGSTFGIYTMGWYRQAPGKERELVAAISSRGGSTYYADSVKGRFTISRDNAKNTVYLQMNSLKPEDTAVYYCAAVGRSHSRPYTDEYWGQGTQVTVSS	high polyreactivity
QVQLVESGGGLVQAGGSLRLSCAASGNIFHFYAIARYRQAPRKERELVATISWRGDGTYYADSVKGRFTISRDKAKNTVYFQLISLKPEETAVDYCAARGVWPEYDYWGQGTQVTVSS	low polyreactivity
QVQLVESGGGLVQAGGSLRLSCAASGFTFTWYAMGWYRQAPGKERELVATISRSGGRTYYADSVKGRFTISRDNAKNPVYLQMNSLKPEVTAVYYCAADTRNYPRYDYWGQGTQVTVSS	high polyreactivity
QVQLVESGGGLVQAGGSLRLSCAASGFIFYLYARGWYRQAPGKERELVAAITRRGGSTYYADSVKGRFTISRDIAKNTFYLQMNSLKPEDTAVYYCAADHYGFFSAGDFDYWGQGTQVTVSS	high polyreactivity
PVQLVESGGGLVQAGGSLRLSCPASGRILVGNAMGWYRQAPGKERELVAALTSSGDSTNYADSVKGRFTISRDNAKNTVYLQMNSLKPEDTAVYYCAAGSFGTSGFSDVIWEGDYWGQGTQVTVSS	low polyreactivity
QVQLVESGGGLVQAGGSLRLSCADSGFTFWYYDMGWYRQAPGKERELVAAITNGGRTYYADSVKGRFTISRDNAKNTVYLQMNSLKPEDTAVYYCAVLGGHGFYQGDYWGQGTQVTVSS	high polyreactivity
QVQLVESGGGLVQAGGSLRLSCAASGSTFFRYAMGLYRQAPGKEREFVAAITSSGGNTYYADSVKGRFTISRDNAKNTVYLQMNSLKPEDTAVYYCAAVWYSPYVKYNYWGQGTQVTVSS	low polyreactivity
QVQLVESGRGLVQAGGSLRLSCAPSGLIFRYYAMGWYRQAPGKEREFVAAISGRGASTYYADSVKGRFTISRDNAKNTVYLQMNSLKPEDTAVYYCATYFPSAVVAFHMDYWGQGTQVTVST	high polyreactivity
QVHLVESGGGLVQAGGSLRLSCAASGSTSDNTMGWYRQAPGKERELVAAISQRGVSTYYADSVKGRFTISRDNAKNTVYLQMNSLKPEDTAVYYCNALLSAKFDYWGQGTQVTVSS	low polyreactivity
QVQLVESGGGLVQAGGSLRLSCAASGRSIVGYTMGWYTQAPGKERELVAAITSGGSTYYADSVKGRFTISRDNAKNTVYLQMISLKPEDTAVYYCSAYVRYSTPGKLYQYGYWGQGTQVTVSS	high polyreactivity
QVQLVESGGGLVQAGGSLRLSCAASGSTFAGNAIGWYRQAPGKERELVAAITSGTGTHYADSVKGRFTISRDNAKNSVYLQMNSLKPEDTAVYYCAAEVWSWAGIWGYEYWGQGTQVTVSS	low polyreactivity
QVQLVESGGGLVQAGGSLRLSCAASGRIFSYYARGWYRQAPGKERELVATINSGGSTNYADSVKGRFTISRDNAKNTVYLLMNSLKPEDTAVYYCAASPVWWYDYWGQGTQVTVSS	low polyreactivity
QVQLVESGGGLVQAGGSLRLSCAASGSIFSVYARGWSRQAPGKERELVAAITSGTSTYADSVKGRFTISRDNAKNTVYLQMNSLKPEDTAVYACAAESGSPGYYYWGQGTQVTVSS	low polyreactivity
QVQLVESGGGLVQAGGSLRLSCAASGSIFYTYAKGWYRQAPGKQRELVAGISWSGSDTYYADSVKGRFTISRDNAKNTVYLQMNSLKPEDTAVYYCNAETSTRKNFGYDYWGQGTQVTVSS	low polyreactivity
QVQLVESGGGLVQAGGSLRLSCAASGRTLSYYAMGWYSQAPGKERELVAAITWNGGRTYYADSVKGRFTISRDNAKNTVYLQMNSRKPEDTAVYYCNAVYSPRYYVGGYDYWGQGTQVTVSS	high polyreactivity
QVQLVESGGGLVQAGGSLRLSCAASGYIFGYYVMGWYRQAPGKERELVAAITGRGGSTYYADSVKGRFTISRDNAKNTVSLQMNSLKPEDTAVYYCAADATTYPYDPWHLYEIWEYYYWGQGTQVTVSS	low polyreactivity
QVQLVESGGGLVQAGGRLRLSCAASGLTFLPNAMGWYRQAPGKERELVAAISWSDVRTYYADSVKGRFTISRDNAKNTVYLQMNSLKPEDTAVYYCAAEIYDLPEGDYWGQGTQVTVSS	high polyreactivity
QDQLGESGGGLVQAGGSLRLSCAASGYIFGTYAMGWYRQATGKERELVAAISVGGGSTYYADSVKGRFTISRDNAKHTVYLQMNSLKPEDTAVYYCAAVQLYQKHQITYVAHEYWGQGTQVTVSS	low polyreactivity
QVQLVESGGGLVKAGGSLRLSCAASGLISAVYALGWYRQAPGKERELVAAITTSGGRTYYADSVKGRFTISRDNAKNTVYLQMNSLKPEDTAVYYCAAEHVRYLNPEFDYWGQGTQVTVSS	high polyreactivity

Sequence	polyreactivity (PSR sort gate)
QVQLVESGGGLVQAGGSLRLSCASSGRTYNVMGWYRQATGKERELVAAITWRGGSTHYADSVKGRFTISRDNAKNTVYLQMNSLKAEDTAVYYCSADLLYKSTRVDYWGQGTQVTVSS	low polyreactivity
QVQLVESGGGLVQAGGSLRLSCAASGSIFTYNVMGWYRQAPGKERELVASISWSGGRTYYADSVKGRFTISRDNAKNTVYLQMNSLKPEDTAVYYCNKVRPPVYFPNRDYWGQGTQVTVSS	low polyreactivity
QVQLVESGGGIVQAGGSLRLSCAASGRTFTYNAMGRYRQAPGKERELVAAITYRGGSTYYADSVKGRFTISRDNAKNTVYLQMNSLKPEDTAVYYCAARVSYYRYNTPHYYYWGQGTQVTVSS	high polyreactivity
QVQLVESGGGLVQAGGSLRLSCAASGRIFFFYAMGWYRQAPGKERELVATITWTDGSTDYADSVKGRFTISRDNAKNTVYLQMNSLKPEDTAVYYCAKDEYVSRYDYWGQGTQVTVSS	low polyreactivity
QVQLVESGGGLVQAGGSLRLSGAAKGSTFRQYAMGWYRQATGKERELVAAISSGGRTNYPDSVKGRFTISRDNAKNTVYFHMNSQKPVDTAVYYSAARFYFQFRRFRRMDYWGQGTQVTVSS	high polyreactivity
QVQLVESGGGLVQAGGSLRLSCAASGFTFYRYAMGWYRQAPGKERELVARISWSGGSTYYADSVKGRFTISRDNAKNTVYLQMNSLKPEDTAVYYCNARRLFESWKYDYWGQGTQVTVSS	high polyreactivity
QVQLVESGGGLVQAGGSLRLSCAASGSTFSYNAMGWYRQAPGKERELVAAINLRGGNTYYADSVKGRFTNSRDNAKNTVYLQMNSLKPEDTAVYYCARTRRHSQTFDYWGQGTQVIVSS	high polyreactivity
QVQLVESGGGLVQAGGSLRLSCAASGRTFPLYAMGWYRQAPGKERELVAAISLSGGRTYYADSVKGRFTISRDNAKNTVYLQMNSLKPEDTAVYYCAARGTLSAQVGIRRYDYWGQGTQVTVSS	low polyreactivity
QVQLVESGGGLVQAGGSLRLSCATSGNIFWRYSIRWYRQAPGKEREFVAGISLRGSSTYYADSVKGRFTISRDNAKNTVYLEMNSLKPEDTAVYYCAVRQPRGSTVFYGGNYWGQGTQVTVSS	low polyreactivity
QVQLVESGGGLVQAGGSLRLSCAASGFTFPYYAMAWYRQAPGKEREVVAAISFSGGRTYYADSVMGRFTISRDNAKYTVYLQMNSLKPEDTAVYYCASYDYRNTGGGGYYYWGQGTQVTVSS	high polyreactivity
QVQLVESGGGLVQAGGSLRLSFAASGSTFRRYDMGWYRQAPGKERELVADISDRGSRTYYADSVKGRFTISRDNAKKTVYFQMNSLEPEYTAVYYCAAEAVGNTSPGDYWGQGTQVTVSS	high polyreactivity
QVQLVESGGGLVQAGGSLRLSCAASGITFFDYAMGWYRQAPGKERELFAAIDLSDGRTYYADSVKGRFTISRDNAKNTVYLQMNSLKPEDTAVYYCNADSFLSWVYRYVYYGSGYWGQGTQVTVSS	low polyreactivity
QVQLVESGGGLVQAGGSLRLSCAASGNTFGTYVMGWYRPAPGKERELVAAISQSGGSTDYADSVKGRFTISRDNAKYTVYLQMNSLKPEETAVYYCAKVTWGTVWYRSPSEYDYWGQGTQVTVSS	low polyreactivity
QVQLVESGGGLVQAGGSLRLSCAPSGRIYATYAMGWYRQAPGKDSELVAAISDSGGRTYYADSVKGRFTISRDNAKNTVYLQMKSLKPEVNAVYYCAAKNGDRYARGYWGQGTQVNVSS	high polyreactivity
QVQLVESGGGLVQAGGSLRLSCAASGFTFAFYTLGWYIQATGKETELVASISWRSGSTYYADSVKGRFTISRDNAKNSVYLQMNSLNPDDTAVYYCAADSAVSWFFYCGQGTQVTVSS	high polyreactivity
QVQLVESGGGLVQAGGSLRLSCAASGRIFGYYAMGGYRQAPGKERELVASISYSGASSYYADSVKGRFTISRDNAKNTVYLQMNSLKPEDTAVYYCNTDGDDFFHVIYDYWGQGTQVTVSS	low polyreactivity
QVQLVESGGGLVQAGGSLRLSCAASGRILYWYALGWYRQAPGKERELVAAISRSGGSTSYADSVKGRFTISRDNAKNTVYLQMNSLKPEDTAVYYCAVDRFWRPVRSGTTYDYWGQGTQVTVSS	low polyreactivity
QVQLVESGGGLVQAGGSLRLSCAASGGTFEYNAMGWYRQAPGKERELVAAISKSGGRTYFADSVKGRFTISRDNAMNTVYLQMNSLKPEDTAVYYCAKRYVWGQGTQVTVSS	high polyreactivity
QVQLVVSGGGLVQAGGSLRLSCAASGSIFLVNVMGGDRQAPGKERELVAAITWSGGRTYYADSVKGRFTISRDNAKNTVYLPRNSRLPEDTAVYYCAAQTPRFVWQKGPLDSEDYWGQGTQVTVSS	high polyreactivity
QVQLVESGGGLVQAGGSLRLSSAASGRIFSSYAMGWYRQAPGKERELVAAITSGGSTYYADSVKGRFTISRDNAKNTVYLQMNSLKPEDTAVYYCAAVYVQPPATAQHYYYWGQGTQVTVSS	high polyreactivity
QVQLVESGGGLVQAGGSLRLSCAASGFIFGPYAMGWYRQAPGKERELVASISWSGGRTYYADSVKGRFTISRDNAKNTVYLQMNSLKPEDTAVYYCAADLPVIRGYRSNRFGYWGQGTQVTVSS	high polyreactivity
